Numbering of substitutions follows the chain as printed. Each block holds one binder with its values, some of them ahead of it.
Tests used:
Assay in all cases: SPR
cynomolgus CD137 = molecular target: T1, cynomolgus CD137 (cynomolgus monkey)
T1 chain: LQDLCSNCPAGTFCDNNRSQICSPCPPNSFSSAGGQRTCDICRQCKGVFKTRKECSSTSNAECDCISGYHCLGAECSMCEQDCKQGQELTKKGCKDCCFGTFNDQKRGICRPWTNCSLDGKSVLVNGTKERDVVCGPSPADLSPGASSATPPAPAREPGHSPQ

human CD137 = human CD137 (human, UniProt Q07011)
human HER2 = human HER2 (human, UniProt P04626)
cynomolgus HER2 = molecular target: T2, cynomolgus HER2 (cynomolgus monkey)
T2 chain: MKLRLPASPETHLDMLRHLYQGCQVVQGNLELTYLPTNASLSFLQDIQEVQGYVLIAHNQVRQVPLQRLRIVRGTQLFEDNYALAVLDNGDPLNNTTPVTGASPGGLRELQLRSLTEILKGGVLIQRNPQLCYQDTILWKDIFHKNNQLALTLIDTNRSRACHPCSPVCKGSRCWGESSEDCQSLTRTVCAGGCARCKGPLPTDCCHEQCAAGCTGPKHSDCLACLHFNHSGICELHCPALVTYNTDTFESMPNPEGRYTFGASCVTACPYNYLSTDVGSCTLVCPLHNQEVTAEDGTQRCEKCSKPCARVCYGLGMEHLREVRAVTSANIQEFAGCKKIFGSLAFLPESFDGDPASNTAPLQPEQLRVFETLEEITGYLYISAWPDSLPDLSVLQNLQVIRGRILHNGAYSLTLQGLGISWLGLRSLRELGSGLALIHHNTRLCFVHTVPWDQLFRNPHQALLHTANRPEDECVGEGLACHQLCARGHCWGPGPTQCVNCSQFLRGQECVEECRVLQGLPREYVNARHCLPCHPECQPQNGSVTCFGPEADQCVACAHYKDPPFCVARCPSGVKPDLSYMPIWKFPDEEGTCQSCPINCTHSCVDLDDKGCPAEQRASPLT

Sequence of human CD137 (Q07011 24-186): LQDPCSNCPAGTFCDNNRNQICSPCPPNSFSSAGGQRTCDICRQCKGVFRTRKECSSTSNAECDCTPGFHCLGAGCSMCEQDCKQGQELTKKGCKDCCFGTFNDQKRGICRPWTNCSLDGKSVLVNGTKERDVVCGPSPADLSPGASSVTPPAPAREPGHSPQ

Kd (cynomolgus CD137): 40 nM | Kd (human CD137): 28 nM
B3: DART-G4 (CD137 arm) (antibody, V domains shown)
VH: QVQLVQSGAEVKKPGASVKVSCKASGYTFTSYWINWVKQAPGQGLEWIGNIYPSDSYTNYNQKFKDKATITADKSTSTAYMELSSLRSEDTAVYYCTRDYGSSYSYNVWGQGTTVTVSS
VL: DIQMTQSPSSLSASVGDRVTITCRPSQDISNYLNWYQQKPDKTVKLLIYYTSRLRSGVPSRFSGSGSGTDFTFTISSLQPEDIATYFCQQGDTLPYTFGQGTKLEIK

Kd (cynomolgus CD137): 78 nM | Kd (human CD137): 64 nM
B4: DART-G3 (CD137 arm) (antibody, V domains shown)
VH: B3 VH with S103A, N107S, V108L
VL: B3 VL

Kd (cynomolgus CD137): 115 nM | Kd (human CD137): 114 nM
B5: DART-G (CD137 arm) (antibody, V domains shown)
VH: B3 VH with Y106F, N107D, V108Y
VL: B3 VL

The next lines start with the binder.

B1: DART-D (CD137 arm) (antibody, V domains shown)
VH: QVQLQQPGAELVRPGASVKLSCKASGYTFTSYWINWVKQRPGQGLEWIGNIYPSDSYTNYNQKFKDKATLTVDKSSSTAYMQLSSPTSEDSAVYYCTRDYGSSYSFDYWGQGTTLTVSS
VL: DIQMTQTTSSLSASLGDRVTISCRPSQDISNYLNWYQQKPDGTVKLLIYYTSRLRSGVPSRFSGSGSGTDYSLTISNLEQEDIATYFCQQGDTLPYTFGGGTKLEIK
Kd (cynomolgus CD137): 67 nM | Kd (human CD137): 53 nM

B2: DART-B (HER2 arm) (antibody, V domains shown)
VH: QVQLVQSGAEVKKPGASVKVSCKASGYTFTNYGMNWVRQAPGQGLEWMGWINTNIGEPTYTEEFKGRVTMTRDTSISTAYMELSRLRSDDTAVYYCARDDGYGNRVSYWGQGTLVTVSS
VL: DIQMTQSPSSLSASVGDRVTITCKASQDISNYLSWFQQKPGKAPKTLIYRANRLQSGVPSRFSGSGSGTDFTLTISSLQPEDFATYYCLQHDEFPWTFGQGTKLEIK
Kd (human HER2): 0.38 nM | Kd (cynomolgus HER2): 0.66 nM

B6: DART-G2 (CD137 arm) (antibody, V domains shown)
VH: B3 VH with S103A, Y106M, N107S, V108T
VL: B3 VL
Kd (cynomolgus CD137): 64 nM | Kd (human CD137): 60 nM
